# Changes are numbered by the printed parent chain.
# T1: VapC Y72A variant (Salmonella enterica serovar Typhimurium …, UniProt Q8ZM86 1-132, Y72A)
# T1 sequence: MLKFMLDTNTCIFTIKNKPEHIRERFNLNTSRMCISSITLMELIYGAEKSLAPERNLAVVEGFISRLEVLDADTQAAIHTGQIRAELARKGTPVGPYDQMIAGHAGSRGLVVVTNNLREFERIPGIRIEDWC
# T2: VapC L43A variant (Salmonella enterica serovar Typhimurium …, UniProt Q8ZM86 1-132, L43A)
# T2 sequence: T1 sequence with L43A, A72Y
# T3: VapC I44A variant (Salmonella enterica serovar Typhimurium …, UniProt Q8ZM86 1-132, I44A)
# T3 sequence: T1 sequence with I44A, A72Y
# T4: VapC A76S variant (Salmonella enterica serovar Typhimurium …, UniProt Q8ZM86 1-132, A76S)
# T4 sequence: T1 sequence with A72Y, A76S
# T5: VapB;VapC (Salmonella enterica serovar Typhimurium …, UniProt Q7CPV2;Q8ZM86 1-75;1-132, |)
# T5 sequence 1: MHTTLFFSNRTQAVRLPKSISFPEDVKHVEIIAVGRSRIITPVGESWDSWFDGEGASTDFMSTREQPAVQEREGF
# T5 sequence 2: T1 sequence with A72Y
# B1: VapC toxin of Salmonella enterica serovar Typhimurium LT2 (enzyme)
# chain: T1 sequence with A72Y
# B2: VapB antitoxin of Salmonella enterica serovar Typhimurium LT2 (natural protein, UniProt Q7CPV2 1-75, looked up)
# chain: T5 sequence 1
# B3: vapO1, 36 bp (dsDNA)
# DNA 1: CTCATAATGGATATACGCGTTGTATATCCAGAAAGG
# DNA 2: CCTTTCTGGATATACAACGCGTATATCCATTATGAG
# Key:
# [1] = molecular target: the molecule itself
# [2] = molecular target: B1; experiment: native gel or EMSA
# [3] = molecular target: T1, VapC Y72A variant; experiment: native gel or EMSA
# [4] = molecular target: T2, VapC L43A variant; experiment: native gel or EMSA
# [5] = molecular target: T3, VapC I44A variant; experiment: native gel or EMSA
# [6] = molecular target: T4, VapC A76S variant; experiment: native gel or EMSA
# [7] = molecular target: T5, VapB;VapC; experiment: EMSA
binder,measurement,setting,value
B1,stoichiometry N,[1],2
B2,binding result,[2],binds
same,binding result,[3],binds
same,binding result,[4],binds
same,binding result,[5],binds
same,binding result,[6],binds
B3,binding result,[7],binds
